Where no end group is shown, it is not given here. [ ]: non-standard residue; d: D form. Ahx = NCCCCCC(=O)O
What was measured:
[1] = target: T1, ICAM-1 on NOD mouse APC / spleen cells (mouse (NOD), UniProt P13597 28-537); experiment: flow cytometry on live APC, blocking by mAb
T1 construct: whole, on cells; Native ICAM-1 on live NOD spleen cells
Protocol: J. Immunol. 2337-2344 (1994). Spleen cell density-gradient fractions from normal (unimmunized) NOD, BALB/c and other MHC congenic strains were incubated in round bottom 96-well plates with increasing concentrations of individual biotinylated peptides at 37° C.,5% CO₂ for 16 hours. Following binding of the BPI to the APC, Avidin-FITC was incubated with the cells on ice for 30 minutes, followed bybiotinylated anti-Avidin for 1 hour, then again with Avidin-FITC. For BPI titrations, increasing concentrations (0.1-100 μM) of the biotinylated derivatives in sterile 0.5% BSA-PBS were incubated with the APC for 16 hours as above.
To test for competitive inhibition of BPI binding with unlabeled peptides or monoclonal antibodies to MHC-II and ICAM-1 on live APC, freshly isolated fractions of spleen cells were incubated with the previously biotinylated BPI. However, for this portion of the experiment, the experimental wells contained various unlabeled peptides (e.g., antigenic peptides or LFA-1 peptides), and/or monoclonal antibody (e.g., anti-MHC-II or anti-ICAM-1 mAb) inhibitors. Negative selection methods with monoclonal antibodies conjugated to magnetic particles were used to enrich the spleen cell fractions for B cells, macrophages, or dendritic cells as well as to examine differences in BPI binding to these different populations. […]

[2] = target: T1, ICAM-1 on NOD mouse APC / spleen cells; experiment: co-capping, fluorescence microscopy, T-depleted spleenocytes of NOD mice given the BPI i.v.
Protocol: To test the ability of the BPI peptide to link MHC-II and ICAM-1 molecules on the APC surface, we used a modification of a co-capping experiment originally described for monoclonal antibodies. […] Antibody-bound cells are then incubated with streptavidin (37 C×15 min.) to cap the MHC-II molecules on the APC surface. The cells were transferred to ice and labeled with a fluorescent (PE) monoclonal antibody to ICAM-1 (3E2). The cells are plated and observed for evidence that a given BPI links ICAM-1 into the MHC-II cap, i.e., by standard fluorescence microscopy and image analysis.

T1 sequence (P13597 28-537): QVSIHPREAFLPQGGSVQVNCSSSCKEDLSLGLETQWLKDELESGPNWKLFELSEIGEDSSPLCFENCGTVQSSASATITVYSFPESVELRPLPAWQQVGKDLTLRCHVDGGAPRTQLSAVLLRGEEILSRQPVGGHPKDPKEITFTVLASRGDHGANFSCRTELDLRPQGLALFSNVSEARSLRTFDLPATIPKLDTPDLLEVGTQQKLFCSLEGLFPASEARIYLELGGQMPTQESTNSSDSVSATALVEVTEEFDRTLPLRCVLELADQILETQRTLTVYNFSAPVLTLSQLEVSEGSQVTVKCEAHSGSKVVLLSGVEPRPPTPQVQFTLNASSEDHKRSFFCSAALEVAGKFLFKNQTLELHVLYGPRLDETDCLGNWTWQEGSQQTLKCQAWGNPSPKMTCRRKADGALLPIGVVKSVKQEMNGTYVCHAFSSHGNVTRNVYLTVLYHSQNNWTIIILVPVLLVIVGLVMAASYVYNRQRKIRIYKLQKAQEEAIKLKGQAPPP

binding result [1] | binding result [2] | Binder
binds | – | EIAPVFVLLE[Ahx]G[Ahx]G[Ahx]ITDGEATDSG (also: biotinylated with NHS-Biotin, site not given here, also called diabetes BPI; GAD 65 BPI) [biotinylated EGAD-BPI (GAD65(208-217)-[Ac-G-Ac-G-Ac]-CD11a (237-247))]
– | binds | EIAPVFVLLE[Ahx]G[Ahx]G[Ahx]ITDGEATDSG (also called diabetes BPI) [EGAD-BPI (GAD65(208-217)-[Ac-G-Ac-G-Ac]-CD11a (237-247)), unlabeled]
